Here are results for two substances from US20110158938A1.

The target of the experiment is IL-15Rα expressed by TF-1 cells (human) (UniProt Q13261). In words: cell-based or functional assay.
Chain of UniProt Q13261 (Q13261 31-267): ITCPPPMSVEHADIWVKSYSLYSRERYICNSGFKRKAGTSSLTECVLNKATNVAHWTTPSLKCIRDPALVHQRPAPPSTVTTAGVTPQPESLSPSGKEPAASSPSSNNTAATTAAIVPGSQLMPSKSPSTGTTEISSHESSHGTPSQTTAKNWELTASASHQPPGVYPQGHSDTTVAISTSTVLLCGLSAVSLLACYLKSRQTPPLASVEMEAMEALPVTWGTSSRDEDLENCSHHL

For “FLAG-IL-15 L47D (from UniProt P40933 49-162) (ligand)”, the EC50 (pM), TF-1β proliferation is greater than 60 pM; the Maximal induction (% WT), TF-1β proliferation came out at 0 % WT; the Relative activity (% WT), TF-1β proliferation is less than 10 % WT.
In the same order, the values of “FLAG-IL-15 L44D (from UniProt P40933 49-162) (ligand)” are greater than 20 pM, 0 % WT and less than 30 % WT.
